Test results published in PMC6032152, “Ca2+/Calmodulin-Dependent AtSR1/CAMTA3 Plays Critical Roles in Balancing Plant Growth and Immunity”.

T1: AtSR1 (CAMTA3) CG-1 domain (Arabidopsis thaliana, UniProt Q8GSA7 1-153)
T1 sequence: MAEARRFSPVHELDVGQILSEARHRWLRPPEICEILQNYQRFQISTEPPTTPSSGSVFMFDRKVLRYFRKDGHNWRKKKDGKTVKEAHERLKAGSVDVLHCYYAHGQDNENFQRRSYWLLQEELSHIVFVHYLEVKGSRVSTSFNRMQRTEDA

B1: ADR1 promoter fragment (dsDNA)
DNA 1: ATTAATCAAAACGCGTAAAAAGAGTA
DNA 2: TACTCTTTTTACGCGTTTTGATTAAT
B2: At5g41750-2 promoter fragment (dsDNA)
DNA 1: TCATTGGTCCTCGCGACTATAACAAA
DNA 2: TTTGTTATAGTCGCGAGGACCAATGA
B3: NPR1 promoter fragment (dsDNA)
DNA 1: AAAGTAAAAAACGCGGAAAGCAATAA
DNA 2: TTATTGCTTTCCGCGTTTTTTACTTT
B4: IAA19 promoter fragment (dsDNA)
DNA 1: AAAAAGCACGACGCGGTGCCATTACT
DNA 2: AGTAATGGCACCGCGTCGTGCTTTTT
B5: IAA1-2 promoter fragment (dsDNA)
DNA 1: AAGAAAGAAGCCGCGTCCAAAATCTT
DNA 2: AAGATTTTGGACGCGGCTTCTTTCTT
B6: At5g41750-1 promoter fragment (dsDNA)
DNA 1: TCTTTAGTCGTCGCGAATTCTTTGGG
DNA 2: CCCAAAGAATTCGCGACGACTAAAGA
B7: PDF1.4 promoter fragment (dsDNA)
DNA 1: CGTGAAAGTCACGCGCCAAGAACAAA
DNA 2: TTTGTTCTTGGCGCGTGACTTTCACG
B8: DWF4 promoter fragment (dsDNA)
DNA 1: ATAAGCCTATACGCGCTCAAAGTATG
DNA 2: CATACTTTGAGCGCGTATAGGCTTAT
B9: SAUR41 promoter fragment (dsDNA)
DNA 1: AACGAAGGGCCCGCGCTGTACTCGAT
DNA 2: ATCGAGTACAGCGCGGGCCCTTCGTT

Molecular target: T1, AtSR1 (CAMTA3) CG-1 domain
Assay: EMSA; EMSA; buffer, salt, pH and temperature not given in the material
Settings: protein: recombinant; tags: 6His (pET32a-derived plasmid)

Binder	binding result
B1	binds
B2	binds
B3	binds
B4	binds
B5	binds
B6	no binding
B7	binds
B8	binds
B9	no binding
